Laboratory results: the DeepSol protein solubility set

experiment: soluble on expression in E. coli; label from the status in PepcDB or PDB records

Soluble on expression in E. coli, not soluble:
MGSDKIHHHHHHMLDFNHQPSIAERINALIDSGLIADRDATPPRAYLGGSRLGHSCERALQFEFAGAPKDSGADFNGQTLRIFAIGHALEDVAIRWLRRAGFDIYTRKGNRPDGEQFGFSVAGGQVRGHVDGILADGPVIPGMGYPALWECKTMNAKNWRETVAKGVTVSKPVYAAQIALYQAYMEGTVPGISANPALFTAINKDTAELHHELVSFDGELAQRISDRAVRILQATDAGELLPRMSSDPDYFECRFCPWKTRCWA
MGSDKIHHHHHHMLDIKYYVLIDAIATHGTVHDAAAAIGITQPAATHRIREMERRLGVALFHREGRRLTLSASGERLLDTAHAVLPQLRNAELEAWQLARRAEPALRLGIGPYDTFSRAIPHLYDQHERDIDLVRLPMADMTTALLANRVDMICMIEVPSQRGIAHQLLFEEPLVAVLPPDHPDAQSDTIPAEVFDRGRHFTYSITPESGHEFEHFFQPAGVYPSHMVQIESVALILELVAAGKGVSILSRWAARDAHQAGHVVMRPLAGDIPRIPWYLAYTQTPHIAAVAEPLADTLRHLYRADE
MGSDKIHHHHHHMLDNSIPTDSCLVSGATVSTDIETLYCNHHDWLQVWLRRRLSSAVDASDLAHDTFVRVLVSGRMPNAEQSRAFLTQIAKGLAVDLYRRRAIEEAYLAALAQLPENLAPSAEERVLALQVLLLLDTALGSLPSRVREVFLLSRLDGLTYSDIAQRRGISVATVRKYMLRAAQACHCVLNSPTGTAP
MGSDKIHHHHHHMLEIVAFRGDEYGLSARILADFLDEFRIHEMSPDNFNGKEEIENDFIIVCNPKLLTENFLRQAYEYSRDRGIYFGVISALSIDLLREKLANYQEQISLDPQQYLIILRKENKSIKHRLNAEVFTRYESTVDNFDRVKHKKLCLSMVIDGNRRHLHLSDGKICGINRDIPLEEIYRYFPDCQNCEYERVYAQDVQAECIFMDSCSSTLISTSEKGEYINVGMNFLKNAKVLISSYRPKQGYNSEALLFHHLISHGFEAGEVLYILNTNSYNHCSDYLPYILYGFPNAKVTIPEKLEVDRLRMGKSEIVLEIDRIAGMRLLEIHAGEDILNEVLKRQFYVFSSDEIRKDVFYSVIPYPLKNSIKLFLYSWEEVNGPLRIVFGVGKRLREDVYSKRYFNMRKLELLGFRHKKIQNQVHDYFSKINEQTEVLDEANRNLKNFDLHRLSKNLSAVEERIYNLLADHLLSQNPKFFIEVYGENMTVRCAEEDLHKTIRCPYCGNYLSIKESENTLVPMKRYSGFCSNCHNVFDTESVHPPKYPEIVLVHEQPDRKIFYVKVWNENAHTTNNLVCFNLWCENRSEMENIYLSRDFQVFTLEPGGEEKFEVEVALKRTDQRINKTYCLYVYWFEDFNLSVSTYTFRLKNV
MGSDKIHHHHHHMLELGQTPNAAPDAAPADLIKDTTDATFMADVVDASQTTPVIVDFWAPWCGPCKTLGPQLEAAVTAAKGKVRMVKVNVDENQQIAAQLRVQSIPMVYAFVDGQPIDGFQGAVPESQIKDFVTKLAAMSKEDGGLAEALEAAEEMLSMGEHDDAAQTFAAILGEEPENAAAMGGLARAHLAMGQVDEAEQLLSTAPDAIFNAPELEAVRAQIELARQAESAGPLAELQAAVDANPDDHAARFELAQALHANGDVEQAVDQLLELFRRDREWEDAKAKTQLFTIFDALPPQDPIALTGRRRLSSMIFA
MGSDKIHHHHHHMLFCSMNAVRNWYILPVFFITSFISKGQNGALIPDTYDQFFQNYYLINPANTDTAGVILHMGHKSQLGVFRGVRQTYFDANFRIQSNRFNRAHSVGIQLFNNSEGDFFSKNRIYGRYAFDIHLSETYFLSAGIAVGAVSYAFKATQSSAGGSDLAYDGSTGLWVVGRKLKAGISIQQISQGKLSPLGQIFELRRQYNANVSYLFFINPDIQLTTHVWYKYQQHNMHDVQVAAIITLQNLVEFGGNYKYQKGVVLIGGLKDIHIGTSSLSLAMSYSTGILNYLAKGDNAVEVFLTYSR
MGSDKIHHHHHHMLGRTANGLYWMFRYIERAENSARLIDAGLRMSLTRSEAAEDDWDGVLQSADVRELYDQVHEGLTSGDAIDFLLRDRTNPSSVMSCIEAGRNNARMVRTALTRETWEAINECWIEMKGILARRAKTTDMPEIIDTIKRRAGLIRGAFHGTMLRNEIFNFSRIGTFIERADNTARILDVKYYVLLPAVSAVGSSMDNVQWESILRSVSAHRSYGWVYDAELRPANIADFLIANGRMPRSLAYCYDKLVSNLGYLAREYGERHAAHETAEQTLGLLRSQSIAEIMDQGLHQYLKEFINQNNRLGREISDGYRFYQ
MGSDKIHHHHHHMLHKNDYRLGIDVGGTNTDAAILDADLRCIATAKFPTSMDIYSGIERVIAAVLAQSGIEPQHICYAMLGTTQCTNAIVERKGLDRVGLLRLSLPSSDSVPPLFGWDDEWQKTLGEHFYQLHGGYEFDGREIHPVLLNEVLAVCDTMRGHVDSVAICGVFSPVNNDQELQVAQWVNAALPDVSLSLSHRIGSTGLLERENATILNASLQSTANRFVNGFIQALVRHGIKATPFFGQNDGTLMSESMVKQYPILTMACGPTNSIRGACHLSGLDNALIIDVGGTTTDIGVLVNGFPRESAIAVEVGDVRTNFRMPDIISIGIGGGTCVRQSQNGTLTLGPDSVGYRLLEQSVSFGGETLTLNDIMLQLQRERWTSSLSHSLPELDKALCLEAYRQMIDKVESAIDRIKSSSAAIPAVLVGGGSILLPDVLSGVSQVMRPQNFDAANAVGVALGKVGAQIERVVKMSDNDREKIKSELQQQTICLAEETGAMPGSVEIIDYQEIPLAYLPGNAVQVKIKAAGNLA
MGSDKIHHHHHHMLHQANRTGASTRVEFILPDSIEGYIPLKADLHLHTYFSDGHLSPSARVREAWLDGLDAISVTDHIEYHPADTDMIGYLGATLPDGIEAHNVNKKTNVKPKQDLNKSVELTKKAAVSYGLLIIPGIEITREPKGIGHYNALFTTDNNGIYDPDPLTAIRNAKAQGALVMHNHPGWRRESIQHPDFELKAYGEGLIDGIEANNGTAFCPGTIDRAKEDNLFVASTTDLHDTSFEEYIGRGLRRDMTIILAKDRSLDAMRDALENRRTIGYGAGGTLMGQEYLLRQLFMSCVSISPVNGHNIQLKNPTSLRFIIHPDGKNPIVLPEFSSIILSDKDRGFSVDNAWTGADSFLRISL
MGSDKIHHHHHHMLITFNFEVHQPHRLNKEINQNGNTLWEKYVDTKLNKEVFNKVANKCYIPTNELILELIDEYDFKVNYSITGVFVEQALEFNDYVLDLFKDLVKTGNVELIAETYHHSLTSLFETEDEFIEDIEMHRKMYKEIFGFKAKVFRNTELIYNNRIAKIAKDLGFKAIFTEGIEKILGWRSPNYLYQSPDGMKILLRNYRLSDDIGFRFSARDWDQYPLTADKYAIWLASTPGEVINIYMDYETFGEHHWKETGIFEFLRYLPIEIAKHEHLEVVNVSEVVDRLEPRGEIYVHEFATISWADTERDVSAWLGNKMQRISFEKLKDIGKFIKENSNKLKKLNKFDEIYKMYKVLQTSDNLYYQSIKGLSDMSVHNYFSHFDTPFDAYASYLNILYDFEYYIKELLAKSEFDKNNRRKDGQKQYEKDDEVKKESLINTNIIVAKDDKTESIYIEDEEGKKNKRYERDEGFIIA
MGSDKIHHHHHHMLKLKKILADLHVEQAELAEQMAYSQATISQLVNHSVWPKRAARWGLRERILKFLKERGANDDQVATAFEEWTPTRGNASESGSHTPTGGTEDEAMSIRKQILHPNTRRHFKLPGDPFEEVASAEEFYQNEHIRFTRAAMLDAAKRGGFLAVVGESGSGKTTMRRDLQERIERESIQVQVIRPYVVAMEDNDDKGKTLKATHIAEAIMAAVAPHEVLKTSSEARFRQVEKALKESYRTGMRHVVLIEEAHAMPLATLRHLKRFIELEDGFTRLLSVILIGQTELAIKLNPKNATVREVVQRCELITLPPLGQYLEDYLKFRFARLGVQLDQMVTLDGVQAIRSRLQPEAPRGHEERSFLYPLAVHNLLTAAMNLAAENGAPAVSADIVMEAKWN
MGSDKIHHHHHHMLKNDRWITEQAAAGMLEPFQAGLIRHLDPEQHQRPVLSFGCSSFGYDLRLSAKEFLIFRHVPGTVMNPKRFNPANLESTPLHQDEDGEYFILPAHSYGLGVALEKMKVPSNITVICLGKSTYARLGIIVNTTPAEASWEGHLTLEFSNSSGADCRIYANEGICQLLFFEGDPCDTTYSDRQGKYQHQPERVTLARI
MGSDKIHHHHHHMLKRKIETFLAKWKKSEDRKPLVIKGIRQCGKTYIVQKFAKENYESVVYMNFILEPDKKSAFTGNIDVDTIILNLSALIQGSRFINGKTCIILDEIQECKEARTALKSFHIDGRFDVIATGSLLGVKGYDKSKKKKEEEEGQDSVPVGYETVIDMYPLDFEEFLWANGISDMVIDSVKSCFENESTVPDGIHKAMMELLYRYVIVGGLPEVVNCFLETKNIELIYKVQRNLIAEYEEDMVKYADDPDKPRIRECFESIPKQLAKENKKFQYSVVKKGGRASQYIGSIQWLEDAGIVRRCYNTQITELPLEGNSIKGSFKVYTTDIGILMAMLDYGTQADILKGNLLGYKGAIFENLMADFLCKSGQKLYYFHKDSGLELDFLVRFKGECVILEVKAKTGKAKSMTTVLKNKDVYYVNNAIKLGQYNVGCEGDILTIPLYMGFLVEDKLADVIIPDVDVSLLTTI
MGSDKIHHHHHHMLLILDEYFKEHPIKLRIVDGLYTSGISIRNGRFFTNDVEISVSEIASAFNVNRKTVYETIKLVESNDSLRRVMSSIKPMADIADVALLTGNQIITAYTTLGHFPYVFKEIFNTISKYGCYIREVFSRNMSQEESFIRIIFYRPIPDRIIGQIRKIDGVKSLEVRVNMDTDQILCNNCDIKICPTKYISDVEKEELGDL
MGSDKIHHHHHHMLLLEVKNVSKSYGDTEVLKNVSFELNEGDVMGVLGRSGAGKSVLLHMLRGMEGYEPTSGQIIYHVAYCPHCENVEAPSQVGKKCECETEYVAKSVDFWNNNEITYALKKKIAIMLQRTFALYGEKTVAENIMEALTAAGYEGKDATEWALNLIKMVKLEHRVAHISRDLSGGEKQRVVLARQIAKNPVIFLADEPTGTLDPKTAKFVHNALTEAVIKHNIAMVITSHWPEVIEELCQKAIWLDKGEMRLVGESKHVVEEFMKTVTSMKEFEKVEVKDELLKLENVEKRYVSVDRGIVKAVDGIDVSINEKEIFGLVGVSGAGKTTLSKIIAAVIPPSKGNYEFRLADEWVDMTKVGPLYRGRAKRYIGMLFQEYSLYPHRTILYNLTESIGLEMPGEFAKMKAEHTLVSVGFTEEEAENMLEKHPSELSVGEKHRVALAQVLIREPHLILLDEPTGTMDPITRNQVAESIQKSRSELDQTYVIVSHDMDFVLNVCDRAALVRGGKIIKTGKPDEIVKILSEEEKDEMIGH
MGSDKIHHHHHHMLLQRSTWPEVEAYLQQSDGIIIPIGSTEQHGPTGLIGTDAICAEAIAQGVADRTQALVGPTINVGMALHHLGFPGSVSLRPSTLLQVIVDYLSSLAQHGFRHFYFINGHGGNIATVRAAFAEFYAVAGDRRCPEPDRLRCHLANWFMVPAVTKLARELYGDEEGSHATPSEVALTQFIYPDSIKTAPLTVEVHSSHAIYAADDFRRRYPDGRMGSNPALATPEHGQQFYESAVAELSQSYQAFLAAD
MGSDKIHHHHHHMLNYHHLRYFWIVAHEGNLTRAARKHNIAQSALSMQISALEEYLGQPLFERAGRRLVLTEAGHIALDFADAIFAKGDELLGTFGRLAEAHQKVLRVGALATLSRNFQVGFLRPLFADPEITVIVRSGTLDELLGSLKLYDLDIVLATGVPNRDHATPWIVHIIDTQPVGLIGQPRSDRYQQPLEVLLQREPLIVPSPESTIRTGFDALVHRLGIRPRIVAEIDDMAMMRLVAREHNGLAVIPPIVVTDELRSGMLVEYAELPELVETFCAITMPRRFPNPLLRLVLPGHTTPE
